Reference: publication PMC10866885

How the values were obtained:
[1] = biological target: wild-type human VEGFR1 fused to mCherry (human) (UniProt P17948)
[2] = biological target: VEGFR1 C471R mutant fused to mCherry (human) (UniProt P17948)

diffusion coefficient (D confocal) of VEGFR1-mCherry on the plasma membrane of CHO cells by FRAP after 100 nM VEGF165, read as receptor dimerization [1]: 0.018 µm^2 s^−1
diffusion coefficient (D confocal) of VEGFR1 C471R-mCherry on the plasma membrane of CHO cells by FRAP after 100 nM VEGF165, read as receptor dimerization [2]: 0.017 µm^2 s^−1
Substance: VEGF165 (ligand)
